Kd, koff and kon data for two molecules are collected here from patent publication US20170253670A1.

Assay [1] deals with human FolR1 monovalent Fc fusion, biotinylated (human) (UniProt P15328). Put plainly: SPR Biacore, monovalent, binder captured via anti-Fab. A general note: SPR reads the build-up and loss of mass on a sensor chip optically.
For assay [2], the target named is cynomolgus FolR1 monovalent Fc fusion, biotinylated (cynomolgus). Described as above.
In assay [3] the target is human FolR1 monovalent Fc fusion, biotinylated (human) (UniProt P15328). Put plainly: SPR Biacore, bivalent avidity, antigen on chip.
Assay [4] deals with cynomolgus FolR1 monovalent Fc fusion, biotinylated (cynomolgus). As to the kind of experiment: SPR Biacore, bivalent avidity, antigen on chip.
Assay [5] addresses human FolR1 monovalent Fc fusion, biotinylated (human) (UniProt P15328). Put plainly: SPR Biacore, bivalent avidity (apparent KD), antigen on chip.
In assay [6] the target is cynomolgus FolR1 monovalent Fc fusion, biotinylated (cynomolgus). Described as above.

human FolR1 monovalent Fc fusion, biotinylated (human), sequence (P15328 25-233 limits assumed): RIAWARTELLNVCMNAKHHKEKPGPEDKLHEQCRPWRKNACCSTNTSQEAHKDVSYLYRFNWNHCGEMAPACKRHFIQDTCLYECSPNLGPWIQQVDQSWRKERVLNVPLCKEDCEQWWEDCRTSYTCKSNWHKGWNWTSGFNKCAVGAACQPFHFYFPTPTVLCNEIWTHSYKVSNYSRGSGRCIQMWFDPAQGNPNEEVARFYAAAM
cynomolgus FolR1 monovalent Fc fusion, biotinylated (cynomolgus), sequence (chain, as listed by the source limits assumed, form in doubt): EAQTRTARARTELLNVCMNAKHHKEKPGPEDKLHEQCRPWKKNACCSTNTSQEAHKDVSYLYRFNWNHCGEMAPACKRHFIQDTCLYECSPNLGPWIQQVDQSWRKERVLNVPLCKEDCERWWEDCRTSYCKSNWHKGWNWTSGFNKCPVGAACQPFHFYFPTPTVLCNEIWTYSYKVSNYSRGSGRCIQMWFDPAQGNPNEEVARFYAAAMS

B1: Mov19 IgG (antibody, from a related filing, V domains shown, part only)
VH: QVQLQQSGAELVKPGASVKISCKASGYSFTGYFMNWVKQSHGKSLEWIGRIHPYDGDTFYNQNFKDKATLTVDKSSNTAHMELLSLTSEDFAVYYCTRYDGSRAMDYWGQGTTVTVSS
VL: DIELTQSPASLAVSLGQRAIISCKASQSVSFAGTSLMHWYHQKPGQQPKLLIYRASNLEAGVPTRFSGSGSKTDFTLNIHPVEEEDAATYYCQQSREYPYTFGGGTKLEIK
One may read the koff as the rate constant with which the complex falls apart. By kon is commonly meant the second-order rate constant of association. Take B1: the Kd in assay [1] amounted to 0.55 nM; in assay [2], 0.65 nM; in assay [5], 0.14 nM; in assay [6] it was 0.108 nM. Moreover, the koff turned out to be 0.000159 s⁻¹ in assay [1], 0.000193 s⁻¹ in assay [2], 0.000121 s⁻¹ in assay [3] and 0.000139 s⁻¹ in assay [4]. Besides, the kon in assay [1] was 289000 M⁻¹ s⁻¹; in assay [2], 297000 M⁻¹ s⁻¹; in assay [3] it was 861000 M⁻¹ s⁻¹; in assay [4], 1.29e+06 M⁻¹ s⁻¹.

B2: Farletuzumab (antibody, INN chains, looked up, V domains shown)
VH: EVQLVESGGGVVQPGRSLRLSCSASGFTFSGYGLSWVRQAPGKGLEWVAMISSGGSYTYYADSVKGRFAISRDNAKNTLFLQMDSLRPEDTGVYFCARHGDDPAWFAYWGQGTPVTVSS
VL: DIQLTQSPSSLSASVGDRVTITCSVSSSISSNNLHWYQQKPGKAPKPWIYGTSNLASGVPSRFSGSGSGTDYTFTISSLQPEDIATYYCQQWSSYPYMYTFGQGTKVEIKR
For B2, the koff in assay [1] was determined as 0.023 s⁻¹; in assay [2] it was 0.0373 s⁻¹; in assay [3] it was 0.0009 s⁻¹; in assay [4], 0.000868 s⁻¹. The on-rate (kon) in assay [1] came to 417000 M⁻¹ s⁻¹; in assay [2], 553000 M⁻¹ s⁻¹; in assay [3] it was 1.23e+06 M⁻¹ s⁻¹; in assay [4], 1.33e+06 M⁻¹ s⁻¹. Besides, the values for the Kd in assay [2] and in assay [6] were 67.3 nM and 0.65 nM, respectively.
